Results reported in US20090098142A1.

Tests used:
[1] = target: cynomolgus monkey IL-13 (NHP IL-13) (cynomolgus monkey); test: cell-based or functional assay
[2] = target: native human IL-13 (human) (UniProt P35225); test: cell-based or functional assay
Chain of native human IL-13 (human) (P35225 other isoform, or with tags, fused parts or gaps): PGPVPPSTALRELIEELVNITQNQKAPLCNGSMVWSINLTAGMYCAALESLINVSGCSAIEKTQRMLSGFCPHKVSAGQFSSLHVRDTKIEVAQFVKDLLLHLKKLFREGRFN

Chain of cynomolgus monkey IL-13 (NHP IL-13) (cynomolgus monkey) (Q5I6E4 other isoform, or with tags, fused parts or gaps): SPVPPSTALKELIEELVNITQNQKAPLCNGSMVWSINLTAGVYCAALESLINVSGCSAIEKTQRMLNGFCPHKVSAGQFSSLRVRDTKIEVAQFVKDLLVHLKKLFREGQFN

CD23 expression assay, non-human primate IL-13 at 1 ng/ml, IC50 [1]: 0.308 nM
STAT6 phosphorylation assay, native human IL-13 at 1 ng/ml, IC50 [2]: 0.554 nM
B1: antibody with the murine heavy chain of MJ2-7 and a humanized light chain (antibody, part only; not given: humanized light chain, V domains shown, part only)
VH: EVQLQQSGAELVKPGASVKLSCTGSGFNIKDTYIHWVKQRPEQGLEWIGRIDPANDNIKYDPKFQGKATITADTSSNTAYLQLNSLTSEDTAVYYCARSEENWYDFFDYWGQGTTLTVSS
